Results on nine molecules are retold here after US20230129258A1, “HETEROTANDEM BICYCLIC PEPTIDE COMPLEXES” (BicycleTx Limited, priority 2019, published 2023).

This assay concerns the target CD137 on Jurkat reporter cells (Promega kit CS196005) (UniProt Q07011). Briefly: cell-based or functional assay.

Starred links: 1 amine or outer side, 2 acyl side, 3 side chain; linkers in the order of their positions; H or OH if unused. Positions of bridges follow the written chain, without caps; N, C: chain ends. Non-standard residues stand in square brackets, D forms with d. Chains are numbered I, II in the order given. No end group written: not given here. *: point of attachment. TATA = O=C(CC[*:1])N1CN(C(=O)CC[*:2])CN(C(=O)CC[*:3])C1; Hyp = O=C(O)[C@@H]1C[C@@H](O)CN1; hArg = N=C(N)NCCCC[C@H](N)C(=O)O; tBuAla = CC(C)(C)C[C@H](N)C(=O)O; dK(PYA) = not defined here; NMeA = CN[C@@H](C)C(=O)O; Nle = CCCC[C@H](N)C(=O)O; Pent4ynoyl = C#CCCC(=O)*

Sequence of CD137 on Jurkat reporter cells (Promega kit CS196005) (Q07011 24-255 limits assumed): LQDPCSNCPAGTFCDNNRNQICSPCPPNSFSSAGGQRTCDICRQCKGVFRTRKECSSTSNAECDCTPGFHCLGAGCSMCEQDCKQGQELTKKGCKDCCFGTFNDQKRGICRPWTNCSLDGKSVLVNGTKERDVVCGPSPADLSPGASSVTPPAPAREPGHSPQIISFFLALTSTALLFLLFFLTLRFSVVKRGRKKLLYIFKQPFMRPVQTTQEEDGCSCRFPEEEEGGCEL

B1: BCY14050 (peptide)
peptide 1: AXDCXLVNPLCLXPDWXC
peptide 2: CXPEXPYCFADPYXCA
modifications: BCY8928: Ac-(SEQ ID NO: 11)-A; TATA; linker at dLys(PYA)4; BCY13918: A[HArg]D-(SEQ ID NO: 157); TATA; linker at N-terminus
In the case of B1, the Fold Improvement over BCY9173, EC50, PC3 was found to be 2.05 fold and the Fold Improvement over Emax (BCY9173), PC3 worked out at 1.91 fold.

B2: BCY14052 (peptide)
peptide 1: AXDCXLVNPLCLFPDWXC
peptide 2: CXPEXPYCFADPYXCA
modifications: BCY8928: Ac-(SEQ ID NO: 11)-A; TATA; linker at dLys(PYA)4; BCY13920: A[HArg]D-(SEQ ID NO: 159); TATA; linker at N-terminus
Turning to B2, the Fold Improvement over BCY9173, EC50, PC3 was determined as 4.16 fold and the Fold Improvement over Emax (BCY9173), PC3 came out at 1.89 fold.

B3: heterotandem bicyclic peptide complex BCY12491 (peptide)
peptide 1: A[hArg]DC[Hyp]LVNPLCLHP[dD]W[hArg]C
peptide 2: Ac-C[tBuAla]PE[dK](Pent4ynoyl)PYCFADPY[Nle]CA
modifications: linker I:4-I:11-I:18, II:1-II:8-II:15 via TATA (inferred); also: N-(acid-PEG3)-N-bis(PEG3-azide) linker at chain 1 N-terminus, joined to dLys(PYA)4 of two BCY8928 chains (1:2 complex)
Regarding B3, the Fold Improvement over BCY9173, EC50, PC3 came to 2.3 fold and the Fold Improvement over Emax (BCY9173), PC3 is 1.8 fold.

B4: BCY12723 (peptide)
peptide 1: A[hArg]DC[Hyp]LVNPLCLHP[dD]W[hArg]C
peptide 2: Ac-C[tBuAla]EE[dK(PYA)]PYCFADPY[Nle]C
modifications: linker I:4-I:11-I:18, II:1-II:8-II:15 via TATA; not fully specified (bridges); reading uncertain; also: two CD137 bicycles per complex (EphA2:CD137 1:2)
In the case of B4, the Fold Improvement over BCY9173, EC50, PC3 came to 2.2 fold and the Fold Improvement over Emax (BCY9173), PC3 is 1.8 fold.

B5: BCY14051 (peptide)
peptide 1: AXDCXLVNPLCLXPDWXC
peptide 2: CXPEXPYCFADPYXCA
modifications: BCY8928: Ac-(SEQ ID NO: 11)-A; TATA; linker at dLys(PYA)4; BCY13919: A[HArg]D-(SEQ ID NO: 158); TATA; linker at N-terminus
The molecule B5 showed a Fold Improvement over BCY9173, EC50, PC3 of 3.15 fold and a Fold Improvement over Emax (BCY9173), PC3 of 1.88 fold.

B6: BCY12724 (peptide)
peptide 1: A[hArg]DC[Hyp]LVNPLCLHP[dD]W[hArg]C
peptide 2: Ac-C[tBuAla]PE[dK(PYA)]PYCFADPY[Nle]C
modifications: linker I:4-I:11-I:18, II:1-II:8-II:15 via TATA; not fully specified (bridges); reading uncertain; also: two CD137 bicycles per complex (EphA2:CD137 1:2)
The molecule B6 had a Fold Improvement over BCY9173, EC50, PC3 of 1.1 fold and a Fold Improvement over Emax (BCY9173), PC3 of 1.9 fold.

B7: BCY12725 (peptide)
peptide 1: A[hArg]DC[Hyp]LVNPLCLHP[dD]W[hArg]C
peptide 2: Ac-C[tBuAla]PE[dK(PYA)]PYCFANPY[Nle]C
modifications: linker I:4-I:11-I:18, II:1-II:8-II:15 via TATA; not fully specified (bridges); reading uncertain; also: two CD137 bicycles per complex (EphA2:CD137 1:2)
As to B7, the Fold Improvement over BCY9173, EC50, PC3 amounted to 0.1 fold and the Fold Improvement over Emax (BCY9173), PC3 was determined as 0.7 fold.

B8: BCY13276 (peptide)
peptide 1: [NMeA][hArg]DC[Hyp]LVNPLCLEP[dD]WTC
peptide 2: Ac-C[tBuAla]PE[dK](Pent4ynoyl)PYCFADPY[Nle]CA
modifications: linker I:4-I:11-I:18, II:1-II:8-II:15 via TATA; not fully specified (N-terminus, bridges); also: linker joins chain 1 to two chain 2 copies via PYA triazoles
B8 registered an EC50 (nM), PC3 co-culture of 0.1 nM and an Emax (fold induction over background), PC3 (fold over background) of 50.5.

B9: BCY13279 (peptide)
peptide 1: Ac-C[Hyp]LVNPLCLHP[dD]W[hArg]CL[dH]G[dK]
peptide 2: Ac-C[tBuAla]PE[dK](Pent4ynoyl)PYCFADPY[Nle]CA
modifications: linker I:1-I:8-I:15, II:1-II:8-II:15 via TATA (inferred); also: linker N-(acid-PEG3)-N-bis(PEG3-azide) on C-terminal dK of chain 1, joins two chain 2 copies via PYA triazoles
B9: the Fold Improvement over BCY9173, EC50, PC3 amounted to 4.74 fold and the Fold Improvement over Emax (BCY9173), PC3 was 2.08 fold.
